Four molecules from US20250223354A1 (BIOTHEUS, published 2025) can be followed below.

The term IC50 denotes the point on the concentration scale where inhibition reaches its midpoint. As a reminder, the EC50 is the midpoint of the concentration-response curve. Usually Kd stands for the concentration at which binding is half-saturated.

Test [1] deals with T1, mouse TIGIT overexpressed on CHO cells (mouse, UniProt P86176 29-249).
T1 construct: whole, on cells; also called CHO-muTIGIT cells
T1 sequence (looked up): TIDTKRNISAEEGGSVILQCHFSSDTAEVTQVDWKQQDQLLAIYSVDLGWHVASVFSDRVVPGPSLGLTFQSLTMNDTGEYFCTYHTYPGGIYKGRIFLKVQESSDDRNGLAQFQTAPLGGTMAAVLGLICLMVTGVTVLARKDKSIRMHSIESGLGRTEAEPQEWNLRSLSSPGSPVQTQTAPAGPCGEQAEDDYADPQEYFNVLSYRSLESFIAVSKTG
Description: flow cytometry, CHO-muTIGIT cells. An excerpt: (§1) Specifically, CHO cells overexpressing human TIGIT (CHO-huTIGIT cells), CHO cells overexpressing cynomolgus TIGIT (CHO-cynoTIGIT cells) and CHO cells overexpressing mouse TIGIT (CHO-muTIGIT cells) were generated by transfection of the pCHO1.0 vector (purchased from Invitrogen) with cDNA encoding human TIGIT, cynomolgus TIGIT and mouse TIGIT cloned into the multiple cloning site (MCS), respectively, followed by pressure screening. The overexpressing cells were expanded and adjusted to an appropriate cell density, and added to a 96-well flow cytometry plate. After centrifugation, the cells were added with a gradiently diluted sample to be tested, and incubated at 4° C. for 30 minutes. The cells were washed twice with PBS, and added with a fluorescent secondary antibody correspondingly diluted to an appropriate concentration, then incubated at 4° C. for 30 minutes, and washed twice with PBS. Cells were resuspended with PBS, and detected on a CytoFlex flow cytometer, and the corresponding MFI was calculated. Graphpad software was used for graphical analysis to obtain EC₅₀ values.
Background: In flow cytometry, cells or beads pass a laser one at a time.

Test [2] deals with T2, human TIGIT expressed on cells (human, UniProt Q495A1 22-244).
T2 construct: whole, on cells; cDNA encoding human TIGIT in pCHO1.0 for CHO cells; also called CHO-huTIGIT cells
T2 sequence (looked up): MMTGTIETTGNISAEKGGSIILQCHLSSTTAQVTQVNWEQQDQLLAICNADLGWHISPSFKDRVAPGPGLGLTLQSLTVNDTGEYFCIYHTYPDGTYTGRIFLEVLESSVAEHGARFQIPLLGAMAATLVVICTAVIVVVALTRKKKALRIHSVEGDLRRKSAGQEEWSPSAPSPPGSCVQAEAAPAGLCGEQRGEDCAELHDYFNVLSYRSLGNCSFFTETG
As to the kind of experiment: flow cytometry blocking assay: binding of human CD155 protein with mouse IgG2a Fc tag to CHO cells overexpressing human TIGIT, median fluorescence intensity APC-A; unit from the concentration axis. The protocol: (§2) Specifically, the CHO-huTIGIT cells were expanded and adjusted to a cell density of 2×10⁶ cells/mL, added to a 96-well flow plate at 100 μL/well, and centrifuged for later use. The purified monoclonal antibodies were diluted 3-fold with PBS starting at 400 nM for a total of 12 concentration gradients. The diluted sample was added at 60 μL/well to the cells-carrying 96-well flow plate, and incubated at 4° C. for 30 minutes. […] APC-conjugated goat anti-mouse IgG antibody diluted 100-fold with PBS was added at 100 μL/well, incubated at 4° C. for 30 minutes, and washed twice with PBS. Cells were resuspended with PBS at 100 μL/well, and detected on a CytoFlex flow cytometer, and the corresponding MFI was calculated.

The target in test [3] is T2, human TIGIT expressed on cells. Description: flow cytometry, CHO-huTIGIT cells.
Description: as §1

For test [4], the target named is T3, cynomolgus TIGIT overexpressed on CHO cells (cynomolgus, UniProt A0A7N9I9V4 89-312).
T3 construct: whole, on cells; also called CHO-cynoTIGIT cells
T3 sequence (A0A7N9I9V4 entry or part of it): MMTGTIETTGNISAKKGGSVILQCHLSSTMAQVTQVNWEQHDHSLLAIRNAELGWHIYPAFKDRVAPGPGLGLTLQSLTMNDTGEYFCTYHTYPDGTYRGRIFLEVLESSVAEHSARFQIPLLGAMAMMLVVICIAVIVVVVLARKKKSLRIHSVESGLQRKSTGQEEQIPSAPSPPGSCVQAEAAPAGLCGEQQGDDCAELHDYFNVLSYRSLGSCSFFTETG
Description: flow cytometry on CHO cells overexpressing cynomolgus TIGIT, median fluorescence intensity PE-A; unit from the concentration axis.
Description: as §1

Test [5] deals with T2, human TIGIT expressed on cells. Description: flow cytometry on activated human primary T cells (TIGIT), readout positive cell (%); unit from the concentration axis. From the text:
The binding activity of the anti-TIGIT antibody of the present invention to TIGIT on the surface of activated T cells was detected based on the flow cytometry detection method.
Specifically, human PBMC were sorted according to the experimental protocol provided by […] Company (stemcell, Cat. No.: #17951C) to obtain human total T cells. […] The activated T cells were adjusted to an appropriate cell density and added to a 96-well flow cytometry plate. After centrifugation, the gradiently diluted sample to be tested was added, and incubated at 4° C. for 30 minutes. Washing was carried out twice with PBS, and a fluorescent secondary antibody diluted to an appropriate concentration was added, incubated at 4° C. for 30 minutes, and washed twice with PBS. […]

Test [6] shares this target. Description: flow cytometry, competition with human CD155-mouse IgG2a Fc (2 ug/mL) on CHO-huTIGIT cells. The protocol:
as §2

For test [7] the target is unchanged. Description: flow cytometry on CHO cells overexpressing human TIGIT, median fluorescence intensity PE-A; unit from the concentration axis.
Description: as §1

Test [8] concerns the target T3, cynomolgus TIGIT overexpressed on CHO …. As to the kind of experiment: flow cytometry, CHO-cynoTIGIT cells.
Description: as §1

Test [9] has as its target T4, human TIGIT-his protein (human, UniProt Q495A1 22-141).
T4 construct: not shown: his tag
T4 sequence: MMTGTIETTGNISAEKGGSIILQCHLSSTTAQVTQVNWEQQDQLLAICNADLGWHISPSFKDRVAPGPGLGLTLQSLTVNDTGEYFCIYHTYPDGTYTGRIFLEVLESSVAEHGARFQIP
As to the kind of experiment: BLI (ForteBio), IgG on AHQ sensor, 100 nM TIGIT-his, monovalent, 1:1 model. As for the experimental part:
(§3) Biofilm layer optical interference technology (ForteBio) was used to determine the binding and dissociation […] values of the anti-TIGIT monoclonal antibodies obtained in Example 1 to human, cynomolgus monkey and mouse TIGIT. Fortebio affinity measurements were performed according to existing methods (Este, P et al., High throughput solution-based measurement of antibody-antigen affinity and epitope binning. Mabs, 2013.5(2): p 270-8).
(§4) The antibody-loaded sensor was incubated in 100 nM TIGIT-his antigen to the plateau phase, and then the sensor was transferred to an analysis buffer and incubated for at least 2 minutes for measuring dissociation rate. The kinetic analysis was performed using a 1:1 binding model.
(Biolayer interferometry detects binding as a change in optical thickness at a sensor tip.)

Test [10] concerns the target T5, cynomolgus monkey TIGIT-his protein (cynomolgus monkey).
T5 construct: also called Cynomolgus TIGIT-his; not shown: his tag
Described as above. The protocol:
as §3, §4

Another test deals with T6, mouse TIGIT-his protein (mouse, UniProt P86176 29-148).
T6 construct: not shown: his tag
T6 sequence: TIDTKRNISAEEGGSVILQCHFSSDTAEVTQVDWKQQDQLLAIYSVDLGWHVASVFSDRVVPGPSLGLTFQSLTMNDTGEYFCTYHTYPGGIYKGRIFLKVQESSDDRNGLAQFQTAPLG
Description: BLI (ForteBio), IgG on AHQ sensor, monovalent. As for the experimental part:
as §4

The target in test [11] is T2, human TIGIT expressed on cells. As to the kind of experiment: flow cytometry, competition with human CD155-mouse IgG2a Fc (2 ug/mL) on CHO-huTIGIT cells. The protocol: as §2, with “antibody was” for “monoclonal antibodies were”
The source holds these as a separate data set.

Test [12] has the same target. As to the kind of experiment: flow cytometry, CHO-huTIGIT cells.
Description: as §1, with “(CHO-huTIGITcells),” for “(CHO-huTIGIT cells),”
The source holds these as a separate data set.

Test [13] concerns the target T4, human TIGIT-his protein. Description: BLI (ForteBio), antibody on AHQ sensor, 100 nM antigen, monovalent, 1:1 model. The protocol: (§5) The antibody-loaded sensor was incubated in 100 nM target antigen to the plateau phase, and then the sensor was transferred to an analysis buffer and incubated for at least 2 minutes for measuring dissociation rate. The kinetic analysis was performed using a 1:1 binding model.

Test [14] deals with T5, cynomolgus monkey TIGIT-his protein. The description is as above. As for the experimental part: as §5
The target in test [15] is T3, cynomolgus TIGIT overexpressed on CHO …. As to the kind of experiment: flow cytometry, CHO-cynoTIGIT cells.
Description: as §1, with “(CHO-huTIGITcells),” for “(CHO-huTIGIT cells),”
The source holds these as a separate data set.

The target in test [16] is T1, mouse TIGIT overexpressed on CHO cells. Description: flow cytometry, CHO-muTIGIT cells.
Description: as §1, with “(CHO-huTIGITcells),” for “(CHO-huTIGIT cells),”
The source holds these as a separate data set.

Test [17] shares this target. Description: flow cytometry, competition with mouse CD155-mouse IgG2a Fc (2 ug/mL) on CHO-muTIGIT cells. As for the experimental part: as §2, with “The CHO-muTIGIT” for “Specifically, the CHO-huTIGIT”, “antibody was” for “monoclonal antibodies were”, “calculated. Graphpad software was used for graphing analysis to obtain IC₅₀ values.” for “calculated.”

Like-named read-outs stand apart in the source and are kept apart here.

T5 sequence (chain, as listed by the source): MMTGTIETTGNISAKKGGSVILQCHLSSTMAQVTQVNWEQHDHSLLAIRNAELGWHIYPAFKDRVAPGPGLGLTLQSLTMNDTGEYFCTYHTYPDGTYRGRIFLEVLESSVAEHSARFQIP

B1: anti-TIGIT monoclonal antibody 55812-G1 (antibody, human IgG1, V domains shown)
VH: QVQLVQSGAEVKKPGASVKVSCKASGYAFTGYYMHWVRQAPGQGLEWMGSIIPFSGEANYAQKFQGRVTMTRDTSISTAYMELSRLRSDDTAVYYCARGPGSLDRLWYYYYGMDVWGQGTTVTVSS
VL: not shown
notes: Wild-type human IgG1 heavy chain constant region, human kappa light chain constant region; HEK293
For B1, the binding result is listed as “no binding” in test [1] and “no binding (tested: 100 nM)” in the test with mouse TIGIT-his protein. Moreover, the 50% inhibitory concentration (IC50) in test [2] worked out at 0.356 nM; in test [6], 0.36 nM. The EC50 in test [3] turned out to be 0.66 nM; in test [4] it was 1.12 nM; in [5] it was 0.0517 nM; in [7], 0.658 nM; in test [8] it was 1.13 nM. In addition, the results for the Kd (with human TIGIT-his protein [9]; in [10]) were 3.5 nM and 24.1 nM, respectively.

B2: anti-TIGIT monoclonal antibody ADI-55812 (antibody, V domains shown)
VH: B1 VH
VL: not shown
B2 displayed an IC50 in test [11] of 0.296 nM. Moreover, the EC50 amounted to 0.964 nM in test [12] and 1.5 nM in test [15]. Further, the Kd turned out to be 1.9 nM with human TIGIT-his protein [13] and 34 nM in test [14]. Further, in test [16], the binding result is reported as “no binding”.

B3: anti-TIGIT monoclonal antibody 55812-G1LALA (antibody, human IgG1, V domains shown)
VH: B1 VH
VL: not shown
notes: Human IgG1 heavy chain constant region modified by L234A, L235A; human kappa light chain constant region; HEK293
Regarding B3, the binding result in [1] is reported as “no binding”; with mouse TIGIT-his protein it was “no binding (tested: 100 nM)”. In addition, the values for the IC50 in [2] and in test [6] were 0.319 nM and 0.32 nM, respectively. For the same molecule, the EC50 in test [3] was 0.7 nM; in test [4], 1.28 nM; in test [5], 0.057 nM; in test [7], 0.698 nM; in test [8], 1.28 nM. Moreover, the Kd was 3.4 nM with human TIGIT-his protein [9] and 22.1 nM in [10].

B4: anti-TIGIT monoclonal antibody ADI-55796 (antibody, V domains shown)
VH: QLQLQESGPGLVKPAETLSLTCTVSGGSISSYDHYWTWIRQPPGKGLEWIGTVYYSGSTFHNPSLKSRVTIPVDTSKNQFSLKLSSVTAADTAVYYCARVGPDVSHPPFDYWGQGTLVTVSS
VL: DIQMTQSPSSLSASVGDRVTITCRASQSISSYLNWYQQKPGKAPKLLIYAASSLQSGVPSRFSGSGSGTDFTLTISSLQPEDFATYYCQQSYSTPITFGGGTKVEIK
On to B4, for which the IC50 in [11] is 0.425 nM; in [17] it was 0.889 nM. Further, the EC50 amounted to 1.43 nM in test [12], 1 nM in test [15] and 2.52 nM in test [16]. Further, the dissociation constant Kd is 0.322 nM in the test with human TIGIT-his protein [13] and 3.12 nM in test [14].
